Data reported in patent US20210246166A1 (Bayer, published 2021).
Numbered stars: 1 amine (or outer) side, 2 acyl side, 3 side chain; on linkers, the order of the positions; unused ones are H or OH. Bridge positions count the residues as written; N and C are the ends. Square brackets hold non-standard residues; d marks the D form. Primed or numbered codes have the meaning given here. Ends that are not written are not given here. * marks the point of attachment. X13 = (2S)‑2‑amino‑3‑(1-methylcyclopropyl)propanoic acid, CC1(C[C@H](N[*:1])C(=O)[*:2])CC1; Tranexamic″ = tranexamic acid, NC[C@H]1CC[C@@H](C(=O)*)CC1; Phe(2,5-diF) = O=C([C@H](Cc1cc(F)ccc1F)N[*:1])[*:2]; Oic = O=C(O)[C@@H]1C[C@@H]2CCCC[C@@H]2N1; Cyclobutylacetic = O=C(CC1CCC1)*; tBuAla = CC(C)(C)C[C@H](N)C(=O)O; Pen = CC(C)(S)[C@H](N)C(=O)O; ΔPro = O=C(O)[C@@H]1C=CCN1; NMeC = CN[C@@H](CS)C(=O)O; Nva = CCC[C@H](N)C(=O)O; Ac4c = NC1(C(=O)O)CCC1; PEG2 = NCCOCCOCCC(=O)O; Sar = CNCC(=O)O

T1: recombinant rat MASP1 active protease (amino acids 302-704, C-terminal His Tag) (rat, UniProt Q8CHN8 302-704)
T1 sequence: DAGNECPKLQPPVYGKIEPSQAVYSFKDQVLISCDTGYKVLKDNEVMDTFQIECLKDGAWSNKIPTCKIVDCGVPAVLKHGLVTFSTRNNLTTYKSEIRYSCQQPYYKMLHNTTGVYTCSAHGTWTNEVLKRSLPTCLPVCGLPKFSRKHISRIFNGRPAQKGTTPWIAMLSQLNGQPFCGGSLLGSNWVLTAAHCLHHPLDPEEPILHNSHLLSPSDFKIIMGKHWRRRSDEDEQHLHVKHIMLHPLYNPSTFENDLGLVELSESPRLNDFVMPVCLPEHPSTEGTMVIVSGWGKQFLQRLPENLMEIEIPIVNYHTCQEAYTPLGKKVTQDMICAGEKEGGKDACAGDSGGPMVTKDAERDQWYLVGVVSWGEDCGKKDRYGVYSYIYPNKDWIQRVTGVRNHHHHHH


Experiments:
[1] = biological target: recombinant rat MASP2 active protease (amino acids 296-685, C-terminal His Tag) (rat, UniProt Q9JJS8 296-685); assay: cell-based or functional assay
recombinant rat MASP2 active protease (amino acids 296-685, C-terminal His Tag), sequence (Q9JJS8 other isoform, or with tags, fused parts or gaps limits assumed): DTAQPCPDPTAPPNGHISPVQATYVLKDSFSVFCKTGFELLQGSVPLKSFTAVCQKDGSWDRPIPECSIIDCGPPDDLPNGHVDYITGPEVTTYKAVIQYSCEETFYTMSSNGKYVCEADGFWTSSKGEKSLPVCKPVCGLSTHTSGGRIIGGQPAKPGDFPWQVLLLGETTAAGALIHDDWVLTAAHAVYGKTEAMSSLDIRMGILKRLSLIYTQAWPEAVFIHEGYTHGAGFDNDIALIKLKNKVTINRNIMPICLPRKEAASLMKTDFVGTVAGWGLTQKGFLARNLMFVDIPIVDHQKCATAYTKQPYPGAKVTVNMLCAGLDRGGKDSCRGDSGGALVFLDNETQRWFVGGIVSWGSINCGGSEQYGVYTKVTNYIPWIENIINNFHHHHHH

[2] = biological target: T1, recombinant rat MASP1 active protease …; assay: cell-based or functional assay

rat MASP2 IC50 [1] | rat MASP1 IC50 [2] | Binder
42.4 nM | 60.4 nM | AICSRSLP[Oic]ICIPD-NH2 (disulfide 3-11; N-terminus assumed; SMILES CC[C@H](C)[C@H](NC(=O)[C@H](C)N)C(=O)N[C@H]1CSSC[C@@H](C(=O)N[C@H](C(=O)N2CCC[C@H]2C(=O)N[C@@H](CC(=O)O)C(N)=O)[C@@H](C)CC)NC(=O)[C@H]([C@@H](C)CC)NC(=O)[C@@H]2C[C@@H]3CCCC[C@@H]3N2C(=O)[C@@H]2CCCN2C(=O)[C@H](CC(C)C)NC(=O)[C@H](CO)NC(=O)[C@H](CCCNC(=N)N)NC(=O)[C@H](CO)NC1=O) [Example 224: AIC+SRSLP-(Oic)-IC+IPD-NH2]
34.5 nM | 24.6 nM | GICSRS[tBuAla]P[Oic]I[NMeC]IPD-NH2 (disulfide 3-11; N-terminus assumed; SMILES CC[C@H](C)[C@H](NC(=O)CN)C(=O)N[C@H]1CSSC[C@@H](C(=O)N[C@H](C(=O)N2CCC[C@H]2C(=O)N[C@@H](CC(=O)O)C(N)=O)[C@@H](C)CC)N(C)C(=O)[C@H]([C@@H](C)CC)NC(=O)[C@@H]2C[C@@H]3CCCC[C@@H]3N2C(=O)[C@@H]2CCCN2C(=O)[C@H](CC(C)(C)C)NC(=O)[C@H](CO)NC(=O)[C@H](CCCNC(=N)N)NC(=O)[C@H](CO)NC1=O) [Example 212: GIC+SRS-((tBu)A)-P-(Oic)-I-((N-Me)C)+IPD-NH2]
9.6 nM | 120 nM | {Tranexamic″}-ICSRS[tBuAla]PPI[Pen]IP-NH2 (disulfide 2-10; SMILES CC[C@H](C)[C@@H]1NC(=O)[C@@H]2CCCN2C(=O)[C@@H]2CCCN2C(=O)[C@H](CC(C)(C)C)NC(=O)[C@H](CO)NC(=O)[C@H](CCCNC(=N)N)NC(=O)[C@H](CO)NC(=O)[C@@H](NC(=O)[C@@H](NC(=O)[C@H]2CC[C@@H](CN)CC2)[C@@H](C)CC)CSSC(C)(C)[C@@H](C(=O)N[C@H](C(=O)N2CCC[C@H]2C(N)=O)[C@@H](C)CC)NC1=O) [Example 269: (Tranexamic)-IC+SRS-((tBu)A)-PPI-(Pen)+IP-NH2]
15 nM | 100 nM | [Sar]ICSRS[X13]PPI[Pen]IP-NH2 (disulfide 3-11; N-terminus assumed; SMILES CC[C@H](C)[C@H](NC(=O)CNC)C(=O)N[C@H]1CSSC(C)(C)[C@@H](C(=O)N[C@H](C(=O)N2CCC[C@H]2C(N)=O)[C@@H](C)CC)NC(=O)[C@H]([C@@H](C)CC)NC(=O)[C@@H]2CCCN2C(=O)[C@@H]2CCCN2C(=O)[C@H](CC2(C)CC2)NC(=O)[C@H](CO)NC(=O)[C@H](CCCNC(=N)N)NC(=O)[C@H](CO)NC1=O) [Example 197: ((N-Me)G)-IC+SRS-((2S)-2-amino-3-(1-methylcyclopropyl)propanoic acid)-PPI-(Pen)+IP-NH2]
33.6 nM | 43 nM | [Sar]ICSRS[tBuAla]PPI[Pen]IP-{PEG2-NH2} (disulfide 3-11) [Example 207: ((N-Me)G)-IC+SRS-((tBu)A)-PPI-(Pen)+IP-(PEG1(10 atoms))-NH2]
29 nM | 380 nM | AICSRS[Phe(2,5-diF)]PPI[NMeC]IPD-NH2 (disulfide 3-11; N-terminus assumed; SMILES CC[C@H](C)[C@H](NC(=O)[C@H](C)N)C(=O)N[C@H]1CSSC[C@@H](C(=O)N[C@H](C(=O)N2CCC[C@H]2C(=O)N[C@@H](CC(=O)O)C(N)=O)[C@@H](C)CC)N(C)C(=O)[C@H]([C@@H](C)CC)NC(=O)[C@@H]2CCCN2C(=O)[C@@H]2CCCN2C(=O)[C@H](Cc2cc(F)ccc2F)NC(=O)[C@H](CO)NC(=O)[C@H](CCCNC(=N)N)NC(=O)[C@H](CO)NC1=O) [Example 235: AIC+SRS-((2,5-Difluoro)F)-PPI-((N-Me)C)+IPD-NH2]
23 nM | 75 nM | FICSRS[tBuAla]PPI[Pen]IPD-NH2 (disulfide 3-11; N-terminus assumed; SMILES CC[C@H](C)[C@H](NC(=O)[C@@H](N)Cc1ccccc1)C(=O)N[C@H]1CSSC(C)(C)[C@@H](C(=O)N[C@H](C(=O)N2CCC[C@H]2C(=O)N[C@@H](CC(=O)O)C(N)=O)[C@@H](C)CC)NC(=O)[C@H]([C@@H](C)CC)NC(=O)[C@@H]2CCCN2C(=O)[C@@H]2CCCN2C(=O)[C@H](CC(C)(C)C)NC(=O)[C@H](CO)NC(=O)[C@H](CCCNC(=N)N)NC(=O)[C@H](CO)NC1=O) [Example 211: FIC+SRS-((tBu)A)-PPI-(Pen)+IPD-NH2]
308 nM | 270 nM | [Sar]ICSRSLPPICIPD-OH (disulfide 3-11; N-terminus assumed; SMILES CC[C@H](C)[C@H](NC(=O)CNC)C(=O)N[C@H]1CSSC[C@@H](C(=O)N[C@H](C(=O)N2CCC[C@H]2C(=O)N[C@@H](CC(=O)O)C(=O)O)[C@@H](C)CC)NC(=O)[C@H]([C@@H](C)CC)NC(=O)[C@@H]2CCCN2C(=O)[C@@H]2CCCN2C(=O)[C@H](CC(C)C)NC(=O)[C@H](CO)NC(=O)[C@H](CCCNC(=N)N)NC(=O)[C@H](CO)NC1=O) [Example 281: ((N-Me)G)-IC+SRSLPPIC+IPD-OH]
8.6 nM | 61 nM | [Ac4c]ICSRS[tBuAla]PPI[Pen]I-NH2 (disulfide 3-11; N-terminus assumed; SMILES CC[C@H](C)[C@H](NC(=O)[C@H]1NC(=O)[C@H]([C@@H](C)CC)NC(=O)[C@@H]2CCCN2C(=O)[C@@H]2CCCN2C(=O)[C@H](CC(C)(C)C)NC(=O)[C@H](CO)NC(=O)[C@H](CCCNC(=N)N)NC(=O)[C@H](CO)NC(=O)[C@@H](NC(=O)[C@@H](NC(=O)C2(N)CCC2)[C@@H](C)CC)CSSC1(C)C)C(N)=O) [Example 208: (ACBA)-IC+SRS-((tBu)A)-PPI-(Pen)+I-NH2]
49 nM | 180 nM | A[Nva]CSRS[tBuAla]PPI[Pen]IPD-NH2 (disulfide 3-11; N-terminus assumed; SMILES CCC[C@H](NC(=O)[C@H](C)N)C(=O)N[C@H]1CSSC(C)(C)[C@@H](C(=O)N[C@H](C(=O)N2CCC[C@H]2C(=O)N[C@@H](CC(=O)O)C(N)=O)[C@@H](C)CC)NC(=O)[C@H]([C@@H](C)CC)NC(=O)[C@@H]2CCCN2C(=O)[C@@H]2CCCN2C(=O)[C@H](CC(C)(C)C)NC(=O)[C@H](CO)NC(=O)[C@H](CCCNC(=N)N)NC(=O)[C@H](CO)NC1=O) [Example 199: A-(Nva)-C+SRS-((tBu)A)-PPI-(Pen)+IPD-NH2]
9.7 nM | 60 nM | Cyclobutylacetic-ICSRS[tBuAla]PPI[Pen]IP-NH2 (disulfide 2-10; SMILES CC[C@H](C)[C@H](NC(=O)CC1CCC1)C(=O)N[C@H]1CSSC(C)(C)[C@@H](C(=O)N[C@H](C(=O)N2CCC[C@H]2C(N)=O)[C@@H](C)CC)NC(=O)[C@H]([C@@H](C)CC)NC(=O)[C@@H]2CCCN2C(=O)[C@@H]2CCCN2C(=O)[C@H](CC(C)(C)C)NC(=O)[C@H](CO)NC(=O)[C@H](CCCNC(=N)N)NC(=O)[C@H](CO)NC1=O) [Example 284: (Cyclobutylacetic)-IC+SRS-((tBu)A)-PPI-(Pen)+IP-NH2]
42 nM | 130 nM | [Sar]ICSRS[X13]P[Oic]I[Pen]IP-NH2 (disulfide 3-11; N-terminus assumed; SMILES CC[C@H](C)[C@H](NC(=O)CNC)C(=O)N[C@H]1CSSC(C)(C)[C@@H](C(=O)N[C@H](C(=O)N2CCC[C@H]2C(N)=O)[C@@H](C)CC)NC(=O)[C@H]([C@@H](C)CC)NC(=O)[C@@H]2C[C@@H]3CCCC[C@@H]3N2C(=O)[C@@H]2CCCN2C(=O)[C@H](CC2(C)CC2)NC(=O)[C@H](CO)NC(=O)[C@H](CCCNC(=N)N)NC(=O)[C@H](CO)NC1=O)
2.9 nM | 29 nM | {2‑(3-Pyridyl)acetic acid}-ICSRS[tBuAla]PPI[Pen]IP-NH2 (disulfide 2-10) [Example 226: (2-(3-Pyridyl)acetic acid)-IC+SRS-((tBu)A)-PPI-(Pen)+IP-NH2]
1000 nM | 1000 nM | AICSRSL[ΔPro][Oic]I[Pen]IPD-OH (disulfide 3-11; N-terminus assumed; SMILES CC[C@H](C)[C@H](NC(=O)[C@H](C)N)C(=O)N[C@H]1CSSC(C)(C)[C@@H](C(=O)N[C@H](C(=O)N2CCC[C@H]2C(=O)N[C@@H](CC(=O)O)C(=O)O)[C@@H](C)CC)NC(=O)[C@H]([C@@H](C)CC)NC(=O)[C@@H]2C[C@@H]3CCCC[C@@H]3N2C(=O)[C@@H]2C=CCN2C(=O)[C@H](CC(C)C)NC(=O)[C@H](CO)NC(=O)[C@H](CCCNC(=N)N)NC(=O)[C@H](CO)NC1=O) [Example 237: AIC+SRSL-(L-dehydroproline)-(Oic)-I-(Pen)+IPD-OH]
125 nM | 67.3 nM | [Sar]ICSRSLPPI[NMeC]IPD-OH (disulfide 3-11; N-terminus assumed; SMILES CC[C@H](C)[C@H](NC(=O)CNC)C(=O)N[C@H]1CSSC[C@@H](C(=O)N[C@H](C(=O)N2CCC[C@H]2C(=O)N[C@@H](CC(=O)O)C(=O)O)[C@@H](C)CC)N(C)C(=O)[C@H]([C@@H](C)CC)NC(=O)[C@@H]2CCCN2C(=O)[C@@H]2CCCN2C(=O)[C@H](CC(C)C)NC(=O)[C@H](CO)NC(=O)[C@H](CCCNC(=N)N)NC(=O)[C@H](CO)NC1=O) [Example 232: ((N-Me)G)-IC+SRSLPPI-((N-Me)C)+IPD-OH]
55.2 nM | 88.7 nM | [Sar]ICSRSLPPICIPD-NH2 (disulfide 3-11; N-terminus assumed; SMILES CC[C@H](C)[C@H](NC(=O)CNC)C(=O)N[C@H]1CSSC[C@@H](C(=O)N[C@H](C(=O)N2CCC[C@H]2C(=O)N[C@@H](CC(=O)O)C(N)=O)[C@@H](C)CC)NC(=O)[C@H]([C@@H](C)CC)NC(=O)[C@@H]2CCCN2C(=O)[C@@H]2CCCN2C(=O)[C@H](CC(C)C)NC(=O)[C@H](CO)NC(=O)[C@H](CCCNC(=N)N)NC(=O)[C@H](CO)NC1=O) [Example 271: ((N-Me)G)-IC+SRSLPPIC+IPD-NH2]
